Data published in article doi:10.1101/2022.08.26.505376 (bioRxiv, 2022).
Substitutions are numbered along the chain they refer to. Like-named read-outs stand apart in the source and are kept apart here.

B1: KaiA (natural protein)
chain: MLSQIAICIWVESTAILQDCQRALSADRYQLQVCESGEMLLEYAQTHRDQIDCLILVAANPSFRAVVQQLCFEGVVVPAIVVGDRDSEDPDEPAKEQLYHSAELHLGIHQLEQLPYQVDAALAEFLRLAPVETMADHIMLMGANHDPELSSQQRDLAQRLQERLGYLGVYYKRDPDRFLRNLPAYESQKLHQAMQTSYREIVLSYFSPNSNLNQSIDNFVNMAFFADVPVTKVVEIHMELMDEFAKKLRVEGRSEDILLDYRLTLIDVIAHLCEMYRRSIPRET
B2: KaiC (natural protein)
chain: MTSAEMTSPNNNSEHQAIAKMRTMIEGFDDISHGGLPIGRSTLVSGTSGTGKTLFSIQFLYNGIIEFDEPGVFVTFEETPQDIIKNARSFGWDLAKLVDEGKLFILDASPDPEGQEVVGGFDLSALIERINYAIQKYRARRVSIDSVTSVFQQYDASSVVRRELFRLVARLKQIGATTVMTTERIEEYGPIARYGVEEFVSDNVVILRNVLEGERRRRTLEILKLRGTSHMKGEYPFTITDHGINIFPLGAMRLTQRSSNVRVSSGVVRLDEMCGGGFFKDSIILATGATGTGKTLLVSRFVENACANKERAILFAYEESRAQLLRNAYSWGMDFEEMERQNLLKIVCAYPESAGLEDHLQIIKSEINDFKPARIAIDSLSALARGVSNNAFRQFVIGVTGYAKQEEITGLFTNTSDQFMGAHSITDSHISTITDTIILLQYVEIRGEMSRAINVFKMRGSWHDKAIREFMISDKGPDIKDSFRNFERIISGSPTRITVDEKSELSRIVRGVQEKGPES
B3: KaiCAA (dephosphorylation mimic KaiC) (natural protein)
chain: B2 chain with S431A, T432A
B4: KaiCDT (phosphorylation mimic KaiC) (natural protein)
chain: B2 chain with S431D
B5: KaiB (natural protein)
chain: MSPRKTYILKLYVAGNTPNSVRALKTLKNILEVEFQGVYALKVIDVLKNPQLAEEDKILATPTLAKVLPLPVRRIIGDLSDREKVLIGLDLLYGELQDSDDF

Key:
Experiment in all cases: AUC
[1] = target: the molecule itself
[2] = target: the molecule itself; remark: listed apart in the source
[3] = target: B1
[4] = target: B4
[5] = target: B2

| Binder | stoichiometry N [1] | stoichiometry N [2] | other results |
| --- | --- | --- | --- |
| B1 | 2 | – | – |
| B2 | – | 6 | – |
| B3 | – | 6 | binding result [3]: binds |
| B4 | – | – | binding result [1]: binds |
| B5 | 4 | – | binding result [4]: binds; binding result [5]: binds |
